The assay addresses Biotinylated calmodulin (UniProt P62157). Kind of assay: film bulk acoustic resonator (FBAR); biotinylated calmodulin immobilised on Neutravidin adsorbed on the gold sensor surface (190 ng/cm^2 shown; qualitatively the same at all surface concentrations); peptide injected in flow, 10 µL/min; 10 mM HEPES-NaOH, pH 7.2, 100 mM NaCl, 1 mM CaCl2; resonant frequency and motional resistance monitored; peptide concentration not given.

“Ca2+/calmodulin kinase II inhibitor (CaMKII 281-309) (from UniProt P11275 281-309) (peptide)”: the resonant frequency shift at saturation is -1.4 MHz.

(Values after article PMC4264349.)
